The nanobody polyreactivity screen of Harvey et al. (2022)

Assay: yeast display, Sf9 membrane polyspecificity reagent, FACS + sequencing; frameworks hold sequencing errors
How it was run: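 Galactose induction of a Saccharomyces cerevisiae BJ5465 synthetic nanobody display library ran 36–48 hours. The cells were then stained for 1 hour at 4 °C with 10% biotinylated, detergent-solubilized Sf9 membrane reagent, pulled down on streptavidin microbeads and FACS-sorted into low and high (top ~1%) gates on expression and reagent-binding fluorescence. Labels for polyreactivity follow the gate of origin.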

Sequence	polyreactivity (PSR sort gate)
QVQLVESGGGLVQEGGSHSLSCAASGRTFKYKAMGWSRPAPGKERELVASISGSGGRTYYADSVKGRFTISRDIAKNSVFLQMYRLNPEDTAVYFCNATRVKWLDWGQGTQVTVSS	high polyreactivity
QVQLVESGGGLVQAGGSLRLSCAASGSIFVYNAMGWYRQAPGKERELVAAITNGGSTNYADSVKGRFTISRDNAKNTVYLQMNSLNPEDTAVYYCAARRYTSAVWWRPRHYYWGQGTQVTVSS	high polyreactivity
QVQLVESGGGIVQAGGSLRLSCAASGITFPANAMGWYRQAPGKERELVADISESDGSTYYADSVKGRFTISRDNAKNTVYLQMNSLKPEDTAVYYCAADGTSGTRSDYWGQGTQVTVSS	low polyreactivity
QVQLVESGGGLVQAGGSLRLSCAASGFTYLYAMGWYRQAPGKESELDAAISYSGGSTYYADSVKGRFTISRDNAKNTVYLQMNSMKPEDTAVYYCAAGYGTVRGVSYDYWGQGTQVTVSS	low polyreactivity
QVQLVESGGGLVQAGGSLRLSCAASGSIFDDNTMGWYRQAPGKERELVAAISSRGGSTYYADSVKGRFTISRDNAKNTVYLQMNSLKPEDTAVYYCATGPRWTWEGSRWKLEFDSWGQGTQVTVSS	low polyreactivity
QVNLVESGGGLVQAGCSLRITCADSGRTFKHNAMGWYRQAPGKERQLVAAISRRGGSTYFADSVKGRFTISRDNAKNTVYLQMNRLKPDDTAVYYCNAGYSTFLQYYGEVWKKGCYWGQGTQVTVSS	high polyreactivity
QVQLVESGGGLVQAGGSLRLSCAASGSTFYANAMGWYRQAPGKEREFVADITISGGRTYYADSVKGRFTISRDNAKNTVYLQMNSLKPEDTAVYYWNTRGIFFQSQTHDYWGQGTQVTVSS	low polyreactivity
QVQLVESGGGLVQAGGSLRLSCAASGSTFGENAMGWYRQAPGKERELVAAINYSGGSTYYADSVKGRFTISRDNAKNTVYLQMNRLKPEDTAVYYCAAVNLPQLYYDYDYWGQGTQVTVSS	low polyreactivity
QVQLVESGGGLLQAGGSLRLSCAASGRIYSIYAMGWYRQAPGKERELVASITGSGGTTYYADSVKGRFTISRDIAKNTVYLQMNSLKPEDTAVYYCAAVFYGFVGYYNEDYWGQGSQVTVSS	low polyreactivity
QVQLQESGVCLVQAGGSPRLSCAASDNIFPDSVMCWYRQAPGKERELVATIGFGATTNYADSVKGRFTISRDNAKNTVYLQMNSLKPEDTAVYYCAADPLNYEYFCYWGQGTQVTVSS	low polyreactivity
QVQLVESGGGLVQAGGSLRLSCAASGSTFGVYNMGWYRQAPGQESELVAAITKSGGSTYYADSVMGLFTISRDNAKNTVYLQMNSMNPEDTAVYYCNTDYGRYLYYRFGYLGQGTQVTVSS	low polyreactivity
QVQLVESGGGLVQAGGSLRLSCAASGRIYRYYAMGWYRQAPGKEREFVAAISYRGASTFYADSVKGRFTISRDNAKNTVYLQMNSLKPEDTAVYYCATDTRIRYQGNPYDYWGQGTQVTVSS	high polyreactivity
QVQLVESGGGLVQAGGSLRLSCAASGFTFYNYAMGWFRQATGKERELVAASNSGGSTYYADSVKGRFTSSRDNATNTVYLQMNSLKPEDTAVDYFAARSYYQYRRYYSWGQGTQVTVSS	high polyreactivity
QVHLVESGGGLVQAGGSLGLSCAASGNIFSSNAMGWYTQAPGKERELVDAITRSGGSTYYADSVKGRFTISRDNAKKTVYLQLNSQKPEDTAVYYGAARHYPRNSWGYDYWGQGTQVTVSS	high polyreactivity
QVQLVESGGGLVQAGGSLRLSCAASGNIYDPYAMGWYRQAPGKERELVARISSGGRTDYADSVKGRFTISRDNAKNTVYLQMNSLKPEDTAVYYCAADVLQAYYLTLFGYRYYLVDYWGQGTQVTVSS	low polyreactivity
QVQLVESGGGLVQAGGSLRLICAASGSIFRYYAMGWYRQAPGKERELVATISWSGGGTYYADSVKGRFTISRHNAKNTVYLQMNSLKPEDTAVYYCAADYGEQYVYWGQGTQVTVSS	low polyreactivity
QVQLVESGGGLVQAGGSLRLSCAASGSIFGYNDMGWYRQAPGKERELVAAITTSGDSTYYADSVKGRFTISRDNAKNTVYLQMTSLKPEDTAVYYCNGDGEVVDWYHPYYVEYDYWGQGTQVTVSS	low polyreactivity
QVHLVESGGGLVQAGGSLRLSCAASGSTFYRYAMGWYRQAPGKERELVAAITTSGDSTYYADSVKGRFTISRDNAKNTVYLQMNSLKPEDTAIYDCNKVGRYSSYYWGQGSQVTVSS	high polyreactivity
QVQLVESGGGLVQAGGSLRLSCAASGRILVQNDMGWYRQEPGKERELVAAIRSDGSTSYADSVKGRFTISRDNAKNTVYLQMNSLKPEDTAFYYCAARIDWTGGEYDYWGQGTQVTVSS	low polyreactivity
QVQLVESGGGLVHAGGSLSLSCAASGSIFGQYAMGWYRQAPGKERELVAAISYSTDARTYYADSVKGRFTISRDNAKNTVYLQMNSLKPEDTAVYYFNADSYFGYWGQGTQVTVSS	low polyreactivity
QVQLVESGGGLVQAGGSLRLSCAASGLIFTSYAMGWYRQAPGKERELVAAISRGVRTYYADSVKGRFTISRDNAKNTVYLQMNSLKPEDTAVYYCAAAKPPPGKYDYWGQGTQVTVSS	high polyreactivity
QVQLVESGGGLVQAGGSLRLSCAASGSIFVRYAMGWYRQAPGKERELVAAISSGGRTYYADSVKGRFTISRDNAKNPVYLQMNSLKPEDTAVYYCNAVKRVPSLGPYDYWGQGTQVTVSS	high polyreactivity
QVQLVESGGGLVQAGGSLRVSCAASGSSFTYNAMGWYRQAPGKERELVASINSRGGTTYYADSVKGRFTISRDNAKNTVYFQMNSLKPEDTAVYYCATDVYRLGEYDYWGQGTQVTVSS	low polyreactivity
QVQLVEAGGGLVQAGGSLRLSCAASGITFGDNAMGWYIQAPGKDRELVAAITLSDVDTYADSVKGRFTISRDNSKNTVYLQMISLKPEDTAVYDCAADYDFFSLYLYDYWGQGTQVTVSS	low polyreactivity
QVQLVESGGGLVQAGGSLRLSCAASGSILFGNAMGWYRQAPGKEMELVAAITVSGGSTYYADSVKGRFTISRDNAKNTVYLQMNSLKPEDTAVYYCAAVSLFRDSQFDYWGQGTQVTVSS	low polyreactivity
QVQLVESGGGLVQAGGSLRLSCAASGFTFKWYTMGWYRQAPGKERELVAGISRRGGSTYYADSVKGRFTISRDNAKNTVYLQMNSLKPEDTAVYYCAARYTWRRAGYYYWGQGTQVTVSS	high polyreactivity
QVQLVESGGGLVQAGGSLRVSCAASGIIFDYYVMGWYRQAPGQERELVAAISRSCDRTNYADSVKGRFTISRDNAKNTVYLQMNSLKPEDTAVYYCAARVSIRGGGYEYWGQGTQLTVSS	high polyreactivity
QVQLVESGGVLVQAGGSLRLSCAASGYIFYPYAMGWYRQAPGKERELVAAISGSGSGTYYADSVKGRFTISRDNAKNTVYLQMNSLKPEDTAVYYCAKYLYDNVWMDYWGQGTQVTVSS	low polyreactivity
QVQLVESGGGLVQAGGSLRLSCAASGRIFDIYAMGWYRQAPGKERELVAGITSVGSTNYADSVKGRFTISRDNAKNTVYLQMNSLKPEDTAVYYCAADTSVHSEVDYWGQGTQVTVSS	low polyreactivity
QVQLQENGGGLVQAGGSLRLSCAASGTILYSLGMGWYRQAPGKRREFVASITWGTTTNYAESVKGRFTISRDNAKNSVYPQMNSLKPEDTAVYYCAAPPFGDSSYHYWGQGTQVTVSS	low polyreactivity
